The values that follow come from article PMC10384427.

The Kd is the equilibrium constant for the complex coming apart. A lower Kd goes with a tighter complex.

For this test, the target named is SARS-CoV-2 N protein K65R, not SUMOylated (SARS-CoV-2) (UniProt P0DTC9). As to the kind of experiment: FRET or BRET.

Substance “SARS-CoV-2 N protein K65R, not SUMOylated (from UniProt P0DTC9 1-419) (natural protein)” returned a Kd of 1380 nM.
